# Source: patent publication US8501695B2, “Tissue kallikrein for the treatment of diseases associated with amyloid protein” (DiaMedica, Inc., priority 2007, dated 2013)
# Assay: Pharmacokinetic study of intranasal tissue kallikrein (125I-KLK1 tissue concentrations by gamma counting)
# Assay type: in vivo
# Conditions: rat
# Procedure: The purpose of this study was to quantify the amount of tissue kallikrein (KLK1) reaching the central nervous system and peripheral tissues after intranasal administration to anesthetized rats. At 30 min after KLK1 administration, animals were transcardially perfused with ice-cold saline followed by paraformaldehyde fixative and tissues were dissected. The amount of radiolabeled KLK1 in each tissue sample was quantified by gamma counting and tissue concentrations were calculated using tissue weight and gamma counting of standards of the dosing solutions
# Adult male Sprague Dawley rats (n=10, mean 335.4 g±4.57 g SE) were used for this study. Animals were group housed in the Regions Hospital Animal Care Facility with free access to food and water. Animals were kept on a 12 h light cycle. All experimental procedures were approved by the Animal Care and Use Committee at Regions Hospital under IACUC protocol number 08-022.
# Tissue kallikrein was sent to Perkin-Elmer for ^125I-labelling (Quote NEX-084, lot C1541583). Non-labeled KLK1 from Sigma (cat#K3627-1KU, lot 018K1441) was also used. Non-labeled KLK1 was dissolved in 1×PBS (10×PBS, Sigma, cat #P5493, lot 027K8405 diluted in sterile water). The average dose was 48.1 μL, 75 μCi, and 2.6 mg.
# • a. Prior to anesthesia, each rat was weighed. • b. An anesthesia cocktail was prepared and full, half, and quarter anesthesia doses were calculated according to the animal's weight with a full dose containing 30 mg/kg ketamine, 6 mg/kg xylazine, and 1 mg/kg acepromazine. • c. A 1-cc syringe fitted with a 25 G or 27 G, ½ inch needle was assembled and a full dose was drawn into the syringe for injection. • d. Rats were restrained in a towel as follows. Rats were placed ventral side down in the middle of a hand towel. The towel was then wrapped around the head and shoulders to restrain. Wrapped animals remained ventral side down while the left hind leg was located. • e. The left hind leg was drawn to the side and the needle was inserted just beneath the skin (subcutaneous) above the thigh. After ensuring that the needle was placed subcutaneously (and not intramuscularly), full doses were injected. Rats were placed in holding cages and the injection time noted. Animals should be under within 5 min. • f. Anesthesia was monitored throughout the procedures by assessing reflexes using pinching of the hind paw or tail. If a reflex was present, a half or quarter dose booster was administered as necessary. • g. During drug administration, animals received a half dose booster roughly 20-25 min after initial dose. Intranasal Delivery of ^125I-KLK1 • a. Anesthetized rats were placed on their backs on a heating pad in a metal surgical tray. The heating pad was connected to a thermostat and was automatically regulated to maintain a 37° C. temperature based on continuous measurement from a rectal probe. • b. A 2″×2″ gauze pad was rolled tightly into a pillow, taped together, and under the neck to maintain a correct neck position horizontal with the counter. • c. A lead impregnated shield was placed between the surgical tray and the experimenter for protection against radiation. The dose solution, pipette, pipette tips, and waste receptacle were arranged behind the shield for easy access. • d. A 6 μL drop was loaded into the pipette behind the shield. • e. A cotton swab covered in parafilm was used to occlude one naris completely (the flat part of the swab was pushed gently against the naris to prevent airflow), while the 6 μL drop was expelled slowly from the pipette (held at a 45° angle from the rat's midline), forming a drop on the pipette tip. The drop was lowered onto the open naris to be inhaled. • f. After two minutes, the alternate naris was occluded and a 6 μL drop was administered in the same fashion. • g. A drop was administered as described above every two minutes to alternating nares until a total of 8 drops was delivered (4 to each naris) over 14 min. • h. […]
# [1] = 30 min. end point, Avg, outliers removed
molecule,measurement,setting,value
"tissue kallikrein: serine protease that cleaves kininogen into kallidin; polypeptide SEQ ID NO:1 (Sus scrofa kallikrein 1), KLK1 from Sigma (protein, listed as Sus scrofa, 125I label in one form) MWSLVMRLALSLAGTGAAPPIQSRIIGGRECEKDSHPWQVAIYHYSSFQCGGVLVDPKWVLTAAHCKNDNYQVWLGRHNLFENEVTAQFFGVTADFPHPGFNLSLLKNHTKADGKDYSHDLMLLRLQSPAKITDAVKVLELPTQEPELGSTCQASGWGSIEPGPDDFEFPDEIQCVELTLLQNTFCADAHPDKVTESMLCAGYLPGGKDTCMGDSGGPLICNGMWQGITSWGHTPCGSANKPSIYTKLIFYLDWINDTITENP","reaching target regions (frontal cortex, temporal cortex, hippocampus, cerebral blood vessel walls, cervical nodes)",30 min,effectively reached target regions
same,concentration in Amygdala,[1],16.2 nM
same,concentration in Anterior Olfactory Nucleus,[1],26.8 nM
same,concentration in Anterior Trigeminal Nerve,[1],109.1 nM
same,concentration in Axillary Nodes (2),[1],42.3 nM
same,concentration in Blood Sample,[1],268.4 nM
same,concentration in Carotid Artery,[1],113.4 nM
same,concentration in Cerebellum,[1],10.9 nM
same,concentration in Cervical Nodes (2),[1],122.3 nM
same,concentration in Circle of Willis & Basilar Artery,[1],103.3 nM
same,concentration in Dorsal Dura,[1],132.9 nM
same,concentration in Esophagus,[1],85.2 nM
same,concentration in Extra Cortex,[1],13.0 nM
same,concentration in Extra Slice #1,[1],23.6 nM
same,concentration in Extra Slice #2,[1],16.7 nM
same,concentration in Extra Slice #3,[1],13.9 nM
same,concentration in Extra Slice #4,[1],12.0 nM
same,concentration in Extra Slice #5,[1],11.8 nM
same,concentration in Extra Slice #6,[1],11.3 nM
same,concentration in Frontal Cortex,[1],23.9 nM
same,concentration in Heart,[1],22.6 nM
same,concentration in Hippocampus,[1],10.7 nM
same,concentration in Hypothalamus,[1],22.2 nM
same,"concentration in Kidney (L, tip)",[1],134.8 nM
same,"concentration in Liver (R, superficial lobe)",[1],25.7 nM
same,concentration in Lower Cervical Spinal Cord,[1],7.1 nM
same,concentration in Lumbar Spinal Cord,[1],4.9 nM
same,"concentration in Lung (R, top lobe)",[1],37.2 nM
same,concentration in Medulla,[1],14.9 nM
same,concentration in Midbrain,[1],12.5 nM
same,"concentration in Muscle (R, deltoid)",[1],21.4 nM
same,concentration in Occipital Cortex,[1],12.8 nM
same,concentration in Olfactory Bulbs,[1],107.1 nM
same,concentration in Olfactory Epithelium,[1],"24,762.6 nM"
same,concentration in Optic Chiasm,[1],29.4 nM
same,concentration in Parietal Cortex,[1],12.1 nM
same,concentration in Pituitary,[1],60.1 nM
same,concentration in Pons,[1],14.4 nM
same,concentration in Posterior Trigeminal Nerve,[1],51.8 nM
same,concentration in Renal artery (L),[1],58.1 nM
same,concentration in Respiratory Epithelium,[1],"75,970.0 nM"
same,concentration in Septal Nucleus,[1],12.1 nM
same,concentration in Spinal Dura,[1],26.6 nM
same,concentration in Spleen (tip),[1],72.6 nM
same,concentration in Striatum,[1],9.8 nM
same,concentration in Superficial Nodes (2),[1],63.1 nM
same,concentration in Temporal Cortex,[1],12.4 nM
same,concentration in Thalamus,[1],10.3 nM
same,concentration in Thoracic Spinal Cord,[1],5.2 nM
same,concentration in Thyroid,[1],1970.6 nM
same,concentration in Trachea,[1],77.7 nM
same,concentration in Upper Cervical Spinal Cord,[1],23.4 nM
same,concentration in Urine,[1],130.7 nM
